Measurements: patent US20220298218A1 (ANTAG THERAPEUTICS, published 2022)
Like-named read-outs stand apart in the source and are kept apart here. *1 amine or outer side, *2 acyl side, *3 side chain or, on linkers, in order; H or OH if unused. Where no end group is shown, it is not given here. Side-chain parts run from the residue outwards. The star is where a group is joined. C18 diacid = O=C(O)CCCCCCCCCCCCCCCCC(=O)*; C16 diacid = O=C(O)CCCCCCCCCCCCCCC(=O)*; γGlu = O=C(O)[C@H](CCC(=O)[*:2])N[*:1]; AEEA = NCCOCCOCC(=O)O

Legend:
human GIP receptor [1] = biological target: T1, human GIP receptor (human, UniProt P48546 22-466); assay: cell-based or functional assay
T1 sequence (looked up): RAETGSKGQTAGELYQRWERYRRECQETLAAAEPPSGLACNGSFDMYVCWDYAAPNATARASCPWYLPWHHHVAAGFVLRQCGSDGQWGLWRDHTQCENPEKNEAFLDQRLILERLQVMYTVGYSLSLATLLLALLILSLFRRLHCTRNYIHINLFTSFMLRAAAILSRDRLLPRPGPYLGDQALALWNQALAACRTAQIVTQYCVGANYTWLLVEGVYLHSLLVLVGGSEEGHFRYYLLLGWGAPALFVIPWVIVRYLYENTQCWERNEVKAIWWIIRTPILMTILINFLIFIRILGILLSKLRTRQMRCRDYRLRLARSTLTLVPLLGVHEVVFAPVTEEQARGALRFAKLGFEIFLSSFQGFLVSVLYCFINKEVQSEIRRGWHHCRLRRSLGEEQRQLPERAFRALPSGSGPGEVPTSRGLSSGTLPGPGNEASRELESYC

human GIP receptor [2] = biological target: T1, human GIP receptor; assay: cell-based or functional assay; remark: listed apart in the source

| Binder | cAMP agonism % Emax (human GIP receptor [1]) [%] | cAMP antagonism (human GIP receptor [1]) [nM] | cAMP antagonism % inhib (human GIP receptor [1]) [%] | cAMP antagonism pIC50 (human GIP receptor [1]) | cAMP agonism Emax (human GIP receptor [2]) | cAMP antagonism (human GIP receptor [2]) [nM] | cAMP antagonism % inhib (human GIP receptor [2]) [%] | cAMP antagonism log (human GIP receptor [2]) [log M] |
| --- | --- | --- | --- | --- | --- | --- | --- | --- |
| EGTFISDYSIAMDKIK(C16 diacid)QQDFVNWLLAQKGP-OH (N-terminus assumed; SMILES CC[C@H](C)[C@H](NC(=O)[C@H](CO)NC(=O)[C@H](Cc1ccc(O)cc1)NC(=O)[C@H](CC(=O)O)NC(=O)[C@H](CO)NC(=O)[C@@H](NC(=O)[C@H](Cc1ccccc1)NC(=O)[C@@H](NC(=O)CNC(=O)[C@@H](N)CCC(=O)O)[C@@H](C)O)[C@@H](C)CC)C(=O)N[C@@H](C)C(=O)N[C@@H](CCSC)C(=O)N[C@@H](CC(=O)O)C(=O)N[C@@H](CCCCN)C(=O)N[C@H](C(=O)N[C@@H](CCCCNC(=O)CCCCCCCCCCCCCCC(=O)O)C(=O)N[C@@H](CCC(N)=O)C(=O)N[C@@H](CCC(N)=O)C(=O)N[C@@H](CC(=O)O)C(=O)N[C@@H](Cc1ccccc1)C(=O)N[C@H](C(=O)N[C@@H](CC(N)=O)C(=O)N[C@@H](Cc1c[nH]c2ccccc12)C(=O)N[C@@H](CC(C)C)C(=O)N[C@@H](CC(C)C)C(=O)N[C@@H](C)C(=O)N[C@@H](CCC(N)=O)C(=O)N[C@@H](CCCCN)C(=O)NCC(=O)N1CCC[C@H]1C(=O)O)C(C)C)[C@@H](C)CC) [AT474] | 0 | 13.6 | 86 | 7.9 | 5.9 | 4 | 100 | -8.4 |
| SGTFISDYSIAMDRIK([AEEA-AEEA-AEEA-γGlu-C18 diacid])QQDFVNWLLAQRGPSSGAPPPS-OH (N-terminus assumed; SMILES CC[C@H](C)[C@H](NC(=O)[C@H](CO)NC(=O)[C@H](Cc1ccc(O)cc1)NC(=O)[C@H](CC(=O)O)NC(=O)[C@H](CO)NC(=O)[C@@H](NC(=O)[C@H](Cc1ccccc1)NC(=O)[C@@H](NC(=O)CNC(=O)[C@@H](N)CO)[C@@H](C)O)[C@@H](C)CC)C(=O)N[C@@H](C)C(=O)N[C@@H](CCSC)C(=O)N[C@@H](CC(=O)O)C(=O)N[C@@H](CCCNC(=N)N)C(=O)N[C@H](C(=O)N[C@@H](CCCCNC(=O)COCCOCCNC(=O)COCCOCCNC(=O)COCCOCCNC(=O)CC[C@H](NC(=O)CCCCCCCCCCCCCCCCC(=O)O)C(=O)O)C(=O)N[C@@H](CCC(N)=O)C(=O)N[C@@H](CCC(N)=O)C(=O)N[C@@H](CC(=O)O)C(=O)N[C@@H](Cc1ccccc1)C(=O)N[C@H](C(=O)N[C@@H](CC(N)=O)C(=O)N[C@@H](Cc1c[nH]c2ccccc12)C(=O)N[C@@H](CC(C)C)C(=O)N[C@@H](CC(C)C)C(=O)N[C@@H](C)C(=O)N[C@@H](CCC(N)=O)C(=O)N[C@@H](CCCNC(=N)N)C(=O)NCC(=O)N1CCC[C@H]1C(=O)N[C@@H](CO)C(=O)N[C@@H](CO)C(=O)NCC(=O)N[C@@H](C)C(=O)N1CCC[C@H]1C(=O)N1CCC[C@H]1C(=O)N1CCC[C@H]1C(=O)N[C@@H](CO)C(=O)O)C(C)C)[C@@H](C)CC) [AT442] | – | – | – | – | – | 26 | 77 | -7.6 |
| EGTFISDYSIAMDKIK([AEEA-AEEA-γGlu-C16 diacid])QQDFVNWLLAQKGKKNDW-OH (N-terminus assumed; SMILES CC[C@H](C)[C@H](NC(=O)[C@H](CO)NC(=O)[C@H](Cc1ccc(O)cc1)NC(=O)[C@H](CC(=O)O)NC(=O)[C@H](CO)NC(=O)[C@@H](NC(=O)[C@H](Cc1ccccc1)NC(=O)[C@@H](NC(=O)CNC(=O)[C@@H](N)CCC(=O)O)[C@@H](C)O)[C@@H](C)CC)C(=O)N[C@@H](C)C(=O)N[C@@H](CCSC)C(=O)N[C@@H](CC(=O)O)C(=O)N[C@@H](CCCCN)C(=O)N[C@H](C(=O)N[C@@H](CCCCNC(=O)COCCOCCNC(=O)COCCOCCNC(=O)CC[C@H](NC(=O)CCCCCCCCCCCCCCC(=O)O)C(=O)O)C(=O)N[C@@H](CCC(N)=O)C(=O)N[C@@H](CCC(N)=O)C(=O)N[C@@H](CC(=O)O)C(=O)N[C@@H](Cc1ccccc1)C(=O)N[C@H](C(=O)N[C@@H](CC(N)=O)C(=O)N[C@@H](Cc1c[nH]c2ccccc12)C(=O)N[C@@H](CC(C)C)C(=O)N[C@@H](CC(C)C)C(=O)N[C@@H](C)C(=O)N[C@@H](CCC(N)=O)C(=O)N[C@@H](CCCCN)C(=O)NCC(=O)N[C@@H](CCCCN)C(=O)N[C@@H](CCCCN)C(=O)N[C@@H](CC(N)=O)C(=O)N[C@@H](CC(=O)O)C(=O)N[C@@H](Cc1c[nH]c2ccccc12)C(=O)O)C(C)C)[C@@H](C)CC) [AT415] | 0 | 13.6 | 87 | 7.9 | 4.6 | 55 | 87 | -7.3 |
| EGTFISDYSIAMDKIK(C16 diacid)QQDFVNWLLAQKGPS-OH (N-terminus assumed; SMILES CC[C@H](C)[C@H](NC(=O)[C@H](CO)NC(=O)[C@H](Cc1ccc(O)cc1)NC(=O)[C@H](CC(=O)O)NC(=O)[C@H](CO)NC(=O)[C@@H](NC(=O)[C@H](Cc1ccccc1)NC(=O)[C@@H](NC(=O)CNC(=O)[C@@H](N)CCC(=O)O)[C@@H](C)O)[C@@H](C)CC)C(=O)N[C@@H](C)C(=O)N[C@@H](CCSC)C(=O)N[C@@H](CC(=O)O)C(=O)N[C@@H](CCCCN)C(=O)N[C@H](C(=O)N[C@@H](CCCCNC(=O)CCCCCCCCCCCCCCC(=O)O)C(=O)N[C@@H](CCC(N)=O)C(=O)N[C@@H](CCC(N)=O)C(=O)N[C@@H](CC(=O)O)C(=O)N[C@@H](Cc1ccccc1)C(=O)N[C@H](C(=O)N[C@@H](CC(N)=O)C(=O)N[C@@H](Cc1c[nH]c2ccccc12)C(=O)N[C@@H](CC(C)C)C(=O)N[C@@H](CC(C)C)C(=O)N[C@@H](C)C(=O)N[C@@H](CCC(N)=O)C(=O)N[C@@H](CCCCN)C(=O)NCC(=O)N1CCC[C@H]1C(=O)N[C@@H](CO)C(=O)O)C(C)C)[C@@H](C)CC) [AT473] | 0 | 2.93 | 88 | 8.5 | – | 26 | 100 | -7.6 |
| EGTFISDYSIAMDKIK(C16 diacid)QQDFVNWLLAQKGPSS-OH (N-terminus assumed; SMILES CC[C@H](C)[C@H](NC(=O)[C@H](CO)NC(=O)[C@H](Cc1ccc(O)cc1)NC(=O)[C@H](CC(=O)O)NC(=O)[C@H](CO)NC(=O)[C@@H](NC(=O)[C@H](Cc1ccccc1)NC(=O)[C@@H](NC(=O)CNC(=O)[C@@H](N)CCC(=O)O)[C@@H](C)O)[C@@H](C)CC)C(=O)N[C@@H](C)C(=O)N[C@@H](CCSC)C(=O)N[C@@H](CC(=O)O)C(=O)N[C@@H](CCCCN)C(=O)N[C@H](C(=O)N[C@@H](CCCCNC(=O)CCCCCCCCCCCCCCC(=O)O)C(=O)N[C@@H](CCC(N)=O)C(=O)N[C@@H](CCC(N)=O)C(=O)N[C@@H](CC(=O)O)C(=O)N[C@@H](Cc1ccccc1)C(=O)N[C@H](C(=O)N[C@@H](CC(N)=O)C(=O)N[C@@H](Cc1c[nH]c2ccccc12)C(=O)N[C@@H](CC(C)C)C(=O)N[C@@H](CC(C)C)C(=O)N[C@@H](C)C(=O)N[C@@H](CCC(N)=O)C(=O)N[C@@H](CCCCN)C(=O)NCC(=O)N1CCC[C@H]1C(=O)N[C@@H](CO)C(=O)N[C@@H](CO)C(=O)O)C(C)C)[C@@H](C)CC) [AT472] | 0 | 7.94 | 90 | 8.1 | – | 15 | 100 | -7.8 |
| EGTFISDYSIAMDKIK(C16 diacid)QQDFVNWLLAQKGPSSG-OH (N-terminus assumed; SMILES CC[C@H](C)[C@H](NC(=O)[C@H](CO)NC(=O)[C@H](Cc1ccc(O)cc1)NC(=O)[C@H](CC(=O)O)NC(=O)[C@H](CO)NC(=O)[C@@H](NC(=O)[C@H](Cc1ccccc1)NC(=O)[C@@H](NC(=O)CNC(=O)[C@@H](N)CCC(=O)O)[C@@H](C)O)[C@@H](C)CC)C(=O)N[C@@H](C)C(=O)N[C@@H](CCSC)C(=O)N[C@@H](CC(=O)O)C(=O)N[C@@H](CCCCN)C(=O)N[C@H](C(=O)N[C@@H](CCCCNC(=O)CCCCCCCCCCCCCCC(=O)O)C(=O)N[C@@H](CCC(N)=O)C(=O)N[C@@H](CCC(N)=O)C(=O)N[C@@H](CC(=O)O)C(=O)N[C@@H](Cc1ccccc1)C(=O)N[C@H](C(=O)N[C@@H](CC(N)=O)C(=O)N[C@@H](Cc1c[nH]c2ccccc12)C(=O)N[C@@H](CC(C)C)C(=O)N[C@@H](CC(C)C)C(=O)N[C@@H](C)C(=O)N[C@@H](CCC(N)=O)C(=O)N[C@@H](CCCCN)C(=O)NCC(=O)N1CCC[C@H]1C(=O)N[C@@H](CO)C(=O)N[C@@H](CO)C(=O)NCC(=O)O)C(C)C)[C@@H](C)CC) [AT471] | 0 | 6.81 | 87 | 8.2 | – | 11 | 100 | -7.9 |
